Changes are numbered by the printed parent chain. Names and notes keep the numbering of the source.

Data set [1] has as its target MART-1 peptide on HLA-A2, on HLA-A2 positive SupT1 cells expressing Ii L17A/RRP MART-1. The data set is described as follows: flow cytometry; HLA-A2 positive SupT1 cells expressing Ii L17A/RRP MART-1, 10 nM sTcR, anti-His-PE. On the technique in general: In flow cytometry, cells or beads pass a laser one at a time.
In data set [2] the target is HLA-A2 single-chain trimer (SCT) combined with MART-1 peptide. Kind of data set: flow cytometry; SupT1 cells expressing SCT-MART-1, 10 nM sTcR 15 min at RT, anti-His-PE.
In data set [3] the target is MART-1 peptide on HLA-A2, on HLA-A2 positive SupT1 cells expressing Iiwt MART-1. The data set is described as follows: flow cytometry; HLA-A2 positive SupT1 cells expressing Iiwt MART-1, 10 nM sTcR, anti-His-PE.
Data set [4] deals with the molecule itself. The data set is described as follows: self-association (trimer); western blot of boiled and non-boiled whole cell lysates of transfected Hek cells, anti Ii M-B741. How it is done: Hek cells were transfected as indicated. After 24 hours, whole cell lysates (WCL) were subjected to 4-20% SDS-PAGE Tris-HEPES-SDS gels, transferred to PVDF membranes and probed with anti Ii antibody, M-B741. The samples were either boiled or non-boiled before gel loading. Ii trimers and monomers are shown. Detection of actin in the WCL was used as loading control using anti-actin antibodies.
In order to function as a chaperone for MHC II antigen presentation, Ii depends on two important features; the ability to trimerize[17] and to traffic to the endosomal pathway. The trimerization of IiRRP/L17A was analyzed by western blotting (WB).

As for “soluble form of DMF5 (MART-1 specific TcR)”, the MFI in data set [1] was determined as 194 MFI; in data set [2], 37000 MFI; in data set [3], 105 MFI. For the same molecule, the results for the percent of cells stained in data set [1], in data set [2] and in data set [3] were 21%, 100% and 2%, respectively.

B1: human invariant chain Iip33 wild type (other)
chain: MDDQRDLISNNEQLPMLGRRPGAPESKCSRGALYTGFSILVTLLLAGQATTAYFLYQQQGRLDKLTVTSQNLQLENLRMKLPKPPKPVSKMRMATPLLMQALPMGALPQGPMQNATKYGNMTEDHVMHLLQNADPLKVYPPLKGSFPENLRHLKNTMETIDWKVFESWMHHWLLFEMSRHSLEQKPTDAPPKESLELEDPSSGLGVTKQDLGPVPM
notes: Full length protein expressed in transfected Hek cells and analysed in whole cell lysates; also called Iiwt; Ii wt
For B1, the binding result in data set [4] is “binds”.

B2: invariant chain double leucine mutant Ii L7A/L17A (other)
chain: B1 chain with L7A, L17A
notes: Expressed in Hek cells and analysed in lysates
Regarding B2, the binding result in data set [4] was “binds”.

B3: invariant chain trafficking mutant Ii RRP/L17A (other)
chain: B1 chain with Q4R, D6P, L17A
notes: Expressed in Hek cells and analysed in lysates; also called IiL17A/RRP; Ii L17A RRP
As for B3, the binding result in data set [4] is “binds”.

The values are drawn from patent US20200009238A1 (UNIVERSITETET I OSLO, published 2020).
